Test results reported in publication PMC4306973 (Scientific Reports, 2015).
Values joined by “and” are separate entries in the source; they are usually repeats but may differ in a detail not shown here. Equal values may be shown once.

Biological target: the molecule itself
Assay: SEC

B1: vanillin dehydrogenase from Corynebacterium glutamicum ATCC13032 (VDH_(ATCC13032)) (enzyme, UniProt Q8NMB0 1-484, looked up)
chain: MTATFAGIDATKHLIGGQWVEGNSDRISTNINPYDDSVIAESKQASIADVDAAYEAAKKAQAEWAATPAAERSAIIYRAAELLEEHREEIVEWLIKESGSTRSKANLEITLAGNITKESASFPGRVHGRISPSNTPGKENRVYRVAKGVVGVISPWNFPLNLSIRSVAPALAVGNAVVIKPASDTPVTGGVIPARIFEEAGVPAGVISTVAGAGSEIGDHFVTHAVPKLISFTGSTPVGRRVGELAINGGPMKTVALELGGNAPFVVLADADIDAAAQAAAVGAFLHQGQICMSINRVIVDAAVHDEFLEKFVEAVKNIPTGDPSAEGTLVGPVINDSQLSGLKEKIELAKKEGATVQVEGPIEGRLVHPHVFSDVTSDMEIAREEIFGPLISVLKADDEAHAAELANASDFGLSAAVWSKDIDRAAQFALQIDSGMVHINDLTVNDEPHVMFGGSKNSGLGRFNGDWAIEEFTTDRWIGIKRS
  stoichiometry N: 4 and 3 and 2
